{"source": "patent US9023353B2", "about": "“Anti-(+)—methamphetamine monoclonal antibodies” (Board of Trustees University of Arkansas, priority 2013, dated 2015)", "key": {"ch-Antibody 51": {"tested_on": "ch-Antibody 51", "assay": "ligand cross-reactivity testing: inhibition of [3H]-METH binding to antibody", "text": "Ch-Antibody 51 was designed to maintain the variable framework regions of the heavy and light chains of the mouse antibody including all three CDRs of both the heavy and the light chains, but includes a human IgG2 Fc region. These studies were designed to examine the potential for ch-Antibody 51 to bind to structurally-related stimulants, neurotransmitters, selected medications, and other drugs of abuse (Table 4). The assay used a modified radioimmunoassay (RIA) in a competitive binding format with [^3H]-METH (similar to RIA in Peterson et al., J Pharmacol Exp Ther (2008) 325:124-133) The assay is started by incubating radiolabeled METH ([^3H]-METH) with unlabeled potential ligand (concentrations typically range from 0.03-5000 nM), ch-Antibody 51, and Protein G conjugated to magnetic beads. After reaching equilibrium, the beads with bound antibody and ligand are separated from the solution with a magnet and the supernatant aspirated. The amount of mAb-bound [^3H]-METH is quantified by liquid scintillation counting. For each of the related stimulants, a complete inhibition curve was constructed to determine the KD or KI value (see FIG. 7). For the remaining test ligands, the same method was used, but only 2 concentrations of ligand were tested rather than the expanded range. Additionally, highly concentrated pools of compounds were used to attempt inhibition of [^3H]-METH binding to ch-Antibody 51. If METH binding was inhibited 50% or more by any pool of ligands, the assay was repeated with the compounds separately to identify the individual cross reacting ligands.\nAverage disintegrations per minute (DPM) from the scintillation counter were plotted versus the concentration of unlabeled ligand using Origin software (OriginLab). A 4-parameter logistic function was fit to the data to obtain values describing the top and bottom plateaus, slope and mid-point. The mid-point of the curve identifies the concentration of unlabeled ligand required to inhibit 50% of the binding of [^3H]-METH. For homologous assays in which unlabeled METH competes with [^3H]-METH for binding to ch-Antibody 51, the dissociation constant (KD) is found by subtracting the concentration of [^3H]-METH from the mid-point. For non-homologous assays in which unlabeled ligands other than METH compete for binding with [^3H]-METH, the subtraction yields a KI value.\nEach pool was analyzed in triplicate, twice at each concentration.\nThree (3) of the pools inhibited binding of radiolabeled METH by more than 50%, therefore these individual ligands were retested at 1 μM in triplicate in 2 separate assays."}, "[1]": {"assay": "long-term in vivo METH binding function during continuous sc (+)-METH infusion", "parameters": "species or system Sprague-Dawley rats", "conditions": "rats, single iv mAb dose 180 mg/kg, sc (+)-METH infusion 5.6 mg/kg/day, serum METH to day 13", "description": "FIG. 1 depicts two graphs showing changes in METH in vivo binding by anti-METH monoclonal antibodies (mAbs) in the presence of a 13 day continuous METH infusion. Once METH achieved steady-state levels (pre-mAb) in each of the Sprague-Dawley rats (n=2 per group), a single dose of vehicle treatment (METH only) or of treatment with three different anti-METH mAbs were given as an iv bolus (180 mg/kg, equimolar in binding sites to the METH body burden). Serum samples were collected before the mAb treatment and at various time points after mAb treatment for determination of METH concentrations over time (A). Values represent the mean METH concentration of each group for each time point. METH AUC data is shown in (B). […]\nAbout 16 h after pumps implantation, the rats were anesthetized with halothane. […] METH concentrations in serum samples were then determined by liquid chromatograph/mass spectrometry/mass spectrometry (LC/MS/MS) analysis by a previously reported method from our laboratory (Laurenzana E M et al. Drug Metab Dispos (1995) 23: 271-278).\nThe route of (+)-METH dosing was a subcutaneous (sc) infusion. […] Body weights, eating behavior, and general health observations were recorded for each animal. (+)-METH concentrations were determined by LC/MS/MS, similar to the method described by described by (Laurenzana E M et al. Drug Metab Dispos (1995) 23: 271-278). […]"}, "[2]": {"assay": "terminal elimination half-life in rats", "type": "in vivo", "conditions": "unpublished finding"}, "[3]": {"assay": "(±)-METH priming-induced reinstatement (relapse) of lever pressing", "type": "in vivo, male Long Evans rat", "conditions": "for response rate (lever presses on reinforced lever): Day 1, 1 mg/kg ip (±)-METH prime", "description": "The male Long Evans rat was chosen as the animal model for this study because it is a preferred rodent species for preclinical toxicity testing of drug self-administration paradigms. Commercially obtained test chambers equipped with two retractable levers, a white cue light positioned above each lever, a 5-w house light, and a Sonalert® tone generator (MED Associates, Inc., St. Albans, Vt.) emitting a 2900 Hz, 60 dB tone were used. Infusions were delivered in a 0.2 ml volume by a 6-s activation of infusion pumps (Model PHS-100; MED Associates, Inc., St. Albans, Vt.). Recordings of lever presses and activations of lights, pumps, and Sonalerts® were accomplished by a microcomputer, interface and associated software (MED-PC® IV, MED Associates, Inc., St. Albans, Vt.).\n(±)-METH self-administration (SA) training sessions were conducted five days per week (M-F) for 2 hrs daily. At the start of (±)-METH SA sessions, the levers were extended and the house light was illuminated. […] At the start of an infusion the house light was extinguished, the Sonalert® was sounded, and the cue lights above each lever flashed at 3 Hz. The Sonalert® and cue lights remained activated during the 6 s infusion. Twenty seconds following the onset of the infusion the house light was re-illuminated, and the opportunity to self-administer (±)-METH was again made available (i.e., each (±)-METH infusion initiated a 20 s period during which lever presses were recorded but were without scheduled consequences and further infusions could not be obtained). Reinforced-lever (right-side) lever presses during the infusions as well as all non-reinforced (left-side) lever presses were recorded, but the latter were without scheduled consequences.\nSA training continued until all three criteria had been met: 1) at least 12 self-administration sessions occurred; 2) at least 15 (±)-METH infusions occurred during each of the last four sessions; and, 3) at least 125 lifetime (±)-METH infusions were obtained. Subsequently, twelve 2-h daily (Mon-Sun) extinction sessions were conducted. […] Other conditions during extinction were identical to those during SA. That is, during extinction sessions, both levers were extended and the house light was activated. Before the last four extinction sessions, an injection of saline (the vehicle for (±)-METH prime) was administered ip 30 min pre-session to acclimate the rats to the injection procedure.\nReinstatement testing followed extinction training. A rat was considered eligible for subsequent reinstatement testing if during the last three extinction sessions the mean number of reinforced-lever lever presses was less than the mean number occurring during the first three extinction sessions. […] One rat in the vehicle group was inadvertently retained, even though its response mean (12.3 responses) during the last three extinction sessions exceeded its first three extinction sessions (11.6 responses). Reinstatement testing occurred across 13 daily (Mon-Sun) 2-h experimental sessions. Conditions during reinstatement testing were identical to those during extinction training with two exceptions.\nThe ip route of (±)-METH exposure during relapse testing was selected mainly for convenience of dosing and to avoid additional use of the catheters. […] The dose volume for each animal was based on the most recent body weight measurement.\nBody weights, eating behavior, and general health observations were recorded for each animal. Analyses of an animal's lever pressing responses to vehicle and (±)-METH-induced relapse to active lever responding were used as a measure of the animal's response to an ip injection of vehicle (control) or (±)-METH (1.0 mg/kg).\nInitially, the number of right-side lever presses occurring during test days between test groups was compared using a two-factor, repeated measures ANOVA (Prism 5 for Macintosh, GraphPad Software, Inc., San Diego, Calif.). […]"}, "[4]": {"conditions": "individual ligands at 1 μM, triplicate in 2 assays, average"}}, "note": "Entries after “also recorded” stand apart in the source; their conditions may differ.", "data": [{"molecule": "CNC(C)Cc1ccc2c(c1)OCO2", "note": "(single isomer, unassigned; (-)) [(−)-MDMA]", "values": [{"measurement": "Percent inhibition of [3H]-METH binding", "setting": "ch-Antibody 51; [4]", "result": 78.3, "unit": "%"}, {"measurement": "Ki", "setting": "ch-Antibody 51; inferred from more than 50% inhibition at 1 μM", "result": "< 1000", "unit": "nM"}]}, {"molecule": "CNC[C@H](O)c1cccc(O)c1", "note": "[(−)-Phenylephrine]", "values": [{"measurement": "Percent inhibition of [3H]-METH binding", "setting": "ch-Antibody 51; [4]", "result": 38.2, "unit": "%"}]}, {"molecule": "(+)-Norpseudoephedrine", "values": [{"measurement": "Percent inhibition of [3H]-METH binding", "setting": "ch-Antibody 51; [4]", "result": 36.3, "unit": "%"}]}, {"molecule": "CN[C@@H](C)[C@H](O)c1ccccc1", "note": "(racemic) [(±)-Ephethine]", "values": [{"measurement": "Percent inhibition of [3H]-METH binding", "setting": "ch-Antibody 51; [4]", "result": 26.1, "unit": "%"}]}, {"molecule": "NCCc1ccc(O)cc1", "note": "[Tyramine]", "values": [{"measurement": "Percent inhibition of [3H]-METH binding", "setting": "ch-Antibody 51; ligand pool, each inhibitor in pool 1 μM", "result": 2.1, "unit": "%"}, {"measurement": "Percent inhibition of [3H]-METH binding", "setting": "ch-Antibody 51; ligand pool, each inhibitor in pool 10 μM", "result": 7.5, "unit": "%"}]}, {"molecule": "(+)-Pseudoephedrine", "values": [{"measurement": "Percent inhibition of [3H]-METH binding", "setting": "ch-Antibody 51; [4]", "result": 5.1, "unit": "%"}]}, {"molecule": "NCCc1ccccc1", "note": "[2-Phenylethylamine]", "values": [{"measurement": "Percent inhibition of [3H]-METH binding", "setting": "ch-Antibody 51; [4]", "result": 20.0, "unit": "%"}]}, {"molecule": "CC(N)Cc1ccc2c(c1)OCO2", "note": "(single isomer, unassigned; (+)) [(+)-MDA, (+) 3,4-methylenedioxyamphetamine]", "values": [{"measurement": "Percent inhibition of [3H]-METH binding", "setting": "ch-Antibody 51; [4]", "result": 40.7, "unit": "%"}]}, {"molecule": "Antibody 51: high affinity murine anti-METH monoclonal antibody; light chain SEQ ID NO: 3, heavy chain SEQ ID NO: 4 (antibody, SYTHENSIZED) heavy: EIQLQQSGPELGKPGASVKVSCRASGFSFADYYIYWVKQSHGKSLELIGYIDPFNGGDTYNQIFKGKATLTVDKSSSTAFMYLNSLTSEDSAVYYCAAFRNPSFDFWGQGTTLTVSSAKTTPPSVYPLAPGSAAQTNSMVTLGCLVKGYFPEPVTVTWNSGSLSSGVHTFPAVLQSDLYTLSSSVTVPSSTWPSETVTCNVAHPASSTKVDKKIVPRDCGCKPCICTVPEVSSVFIFPPKPKDVLTITLTPKVTCVVVDISKDDPEVQFSWFVDDVEVHTAQTQPREEQFNSTFRSVSELPIMHQDWLNGKEFKCRVNSAAFPAPIEKTISKTKGRPKAPQVYTIPPPKEQMAKDKVSLTCMITDFFPEDITVEWQWNGQPAENYKNTQPIMDTDGSYFVYSKLNVQKSNWEAGNTFTCSVLHEGLHNHHTEKSLSHSPGK light: QIVLIQSPPIMSASPGEKVTLTCSASSSVSSRYLYWYQQKPGSSPKLWIYGTSNLASGVPARFSGSGSGTSFSLTISSMEAEDAASYFCHQWSSFPFTFGSGTKLEIKRADAAPTVSIFPPSSEQLTSGGASVVCFLNNFYPKDINVKWKIDGSERQNGVLNSWTDQDSKDSTYSMSSTLTLTKDEYERHNSYTCEATHKTSTSPIVKSFNRNEC", "values": [{"measurement": "long-term in vivo METH binding function", "setting": "[1]", "result": "showed long-term functional properties"}, {"measurement": "terminal elimination half-life", "setting": "[2]", "result": "~6", "unit": "days"}, {"measurement": "responding with subsequent treatments every three days", "setting": "[3]; 30 mg/kg iv", "result": "maintained responding at levels always higher than the control"}, {"measurement": "increase over control values", "setting": "[3]; 30 mg/kg iv, Day 1", "result": 143, "unit": "%"}, {"measurement": "response rate (lever presses on reinforced lever)", "setting": "[3]; 30 mg/kg iv", "result": 70, "unit": "presses"}, {"measurement": "responding with subsequent treatments every three days", "setting": "[3]; 56 mg/kg iv", "result": "progressively lower responses from the Day 1 level of responding"}, {"measurement": "increase over control values", "setting": "[3]; 56 mg/kg iv, Day 1", "result": 182, "unit": "%"}, {"measurement": "response rate (lever presses on reinforced lever)", "setting": "[3]; 56 mg/kg iv", "result": 91, "unit": "presses"}, {"measurement": "lever presses", "setting": "[3]; 100 mg/kg iv, Day 1", "result": "~50", "unit": "lever presses"}, {"measurement": "responding compared to vehicle", "setting": "[3]; 100 mg/kg iv, Day 1", "result": "at the same level as vehicle treatment responding"}, {"measurement": "apparent METH dose on ascending side of simulated dose-response curve", "setting": "[3]; 100 mg/kg iv, Day 1, pharmacodynamic simulation, 50 responses", "result": "~0.025", "unit": "mg/kg/inj"}, {"measurement": "responding compared to control", "setting": "[3]; 100 mg/kg iv, Day 7, after third dose", "result": "significantly reduced; also recorded: near extinction"}, {"measurement": "responding", "setting": "[3]; 100 mg/kg iv, Day 10, administration stopped", "result": "remained blunted"}, {"measurement": "responding", "setting": "[3]; 100 mg/kg iv, Day 13, administration stopped", "result": "return to near control levels of responding"}, {"measurement": "responding compared to control", "setting": "[3]; 100 mg/kg iv, after the second administration", "result": "reduced responding below control levels"}]}]}
